Measurements: patent publication US20200277373A1 (published 2020)

Tests used:
[1] = biological target: T1, Mouse TREM2, on cells (mouse, UniProt Q99NH8 19-227); assay: FACS cell binding; FIG. 1D
T1 chain: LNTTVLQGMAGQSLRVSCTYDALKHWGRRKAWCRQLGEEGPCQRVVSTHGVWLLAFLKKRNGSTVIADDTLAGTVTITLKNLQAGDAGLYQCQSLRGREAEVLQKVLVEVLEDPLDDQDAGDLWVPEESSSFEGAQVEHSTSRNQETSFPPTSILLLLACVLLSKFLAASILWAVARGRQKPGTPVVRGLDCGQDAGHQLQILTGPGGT

[2] = biological target: T2, His-tagged TREM2 ECD (ecto domain residues 19-172 of human TREM2, C-terminal 6X-His tag) (UniProt Q9NZC2 19-172); assay: SPR (Biacore)
T2 chain: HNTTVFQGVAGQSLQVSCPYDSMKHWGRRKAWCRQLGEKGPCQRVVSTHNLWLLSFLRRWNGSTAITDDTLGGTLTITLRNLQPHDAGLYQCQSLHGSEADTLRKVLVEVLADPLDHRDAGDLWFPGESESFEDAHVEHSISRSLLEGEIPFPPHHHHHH

B1: RS9.F6 (antibody, V domains shown)
VH: QVQLQQPGAELVKPGASVKLSCKASGYTFTSYWMHWVKQSPGRGLEWIGRSDPTTGGTNYNEKFKTKATLTVDKPSSTAYMQLSSLTSDDSAVYYCVRTSGTGDYWGQGTSLTVSS
VL: DVVMTQTPLSLPVSLGDQASISCRSSQSLVHNNGNTFLHWYLQKPGQSPKLLIYKVSNRFSGVPDRFSGSGSGTDFTLKISRVEAEDLGVYFCSQTTHVPPTFGGGTKLEIK
**Q.** For B1, which EC50 [1] is on record?
**A.** The EC50 was 6.81 nM.

B2: RS9.F6/3C.35.21.17 (bispecific antibody)
heavy 1: QVQLQQPGAELVKPGASVKLSCKASGYTFTSYWMHWVKQSPGRGLEWIGRSDPTTGGTNYNEKFKTKATLTVDKPSSTAYMQLSSLTSDDSAVYYCVRTSGTGDYWGQGTSLTVSSASTKGPSVFPLAPSSKSTSGGTAALGCLVKDYFPEPVTVSWNSGALTSGVHTFPAVLQSSGLYSLSSVVTVPSSSLGTQTYICNVNHKPSNTKVDKKVEPKSCDKTHTCPPCPAPEAAGGPSVFLFPPKPKDTLMISRTPEVTCVVVDVSHEDPEVKFNWYVDGVEVHNAKTKPREEQYNSTYRVVSVLTVLHQDWLNGKEYKCKVSNKALGAPIEKTISKAKGQPREPQVYTLPPSRDELTKNQVSLWCLVKGFYPSDIAVLWESYGTEWASYKTTPPVLDSDGSFFLYSKLTVTKEEWQQGFVFSCSVMHEALHNHYTQKSLSLSPGK
heavy 2: QVQLQQPGAELVKPGASVKLSCKASGYTFTSYWMHWVKQSPGRGLEWIGRSDPTTGGTNYNEKFKTKATLTVDKPSSTAYMQLSSLTSDDSAVYYCVRTSGTGDYWGQGTSLTVSSASTKGPSVFPLAPSSKSTSGGTAALGCLVKDYFPEPVTVSWNSGALTSGVHTFPAVLQSSGLYSLSSVVTVPSSSLGTQTYICNVNHKPSNTKVDKKVEPKSCDKTHTCPPCPAPEAAGGPSVFLFPPKPKDTLMISRTPEVTCVVVDVSHEDPEVKFNWYVDGVEVHNAKTKPREEQYNSTYRVVSVLTVLHQDWLNGKEYKCKVSNKALGAPIEKTISKAKGQPREPQVYTLPPSRDELTKNQVSLSCAVKGFYPSDIAVEWESNGQPENNYKTTPPVLDSDGSFFLVSKLTVDKSRWQQGNVFSCSVMHEALHNHYTQKSLSLSPGK
light: B1 VL
**Q.** For B2, which Kd [2] is on record?
**A.** The Kd was 2.27 nM.
